From patent US20160251435A1 (INHIBRX, published 2016)
Each block holds one binder with its values, some of them ahead of it.

Columns and labels:
[1] = target: T1, human CD47, endogenous cell surface form (Raji, CCRF-CEM cells) (human, UniProt Q08722 19-323); assay: flow cytometry on Raji cells, MFI (FL4)
T1 construct: the cells carry endogenous CD47; also called cell surface CD47
Experimental: (§1) Humanized antibodies were tested for their ability to bind Raji cells by flow cytometry (FIG. 7). […] Apparent affinities were determined by non-linear fits (Prism Graphpad Software) of the median fluorescence intensities at various antibody concentrations.

[2] = target: T1, human CD47, endogenous cell surface …; assay: flow cytometry on Raji cells, MFI (FL4); remark: listed apart in the source
Experimental: as §1

[3] = target: T1, human CD47, endogenous cell surface …; assay: flow cytometry on Raji cells, MFI (FL4); remark: listed apart in the source
Experimental: as §1

[4] = target: T1, human CD47, endogenous cell surface …; assay: flow cytometry on Raji cells, MFI (FL4); remark: listed apart in the source
Experimental: as §1

[5] = target: T1, human CD47, endogenous cell surface …; assay: flow cytometry on Raji cells, MFI (FL4); remark: listed apart in the source
Experimental: as §1

[6] = target: T1, human CD47, endogenous cell surface …; assay: flow cytometry on Raji cells, MFI (FL4); remark: listed apart in the source
Experimental: as §1

[7] = target: T1, human CD47, endogenous cell surface …; assay: apparent KD, flow cytometry on cell surface CD47, non-linear fit of median fluorescence
Experimental: Apparent affinities were determined by non-linear fits (Prism Graphpad Software) of the median fluorescence intensities at various antibody concentrations.

[8] = target: T1, human CD47, endogenous cell surface …; assay: flow cytometry blocking: SIRPa-Fc binding to CCRF-CEM cells with rising antibody (method of Example 3)
[9] = target: T1, human CD47, endogenous cell surface …; assay: apparent KD, flow cytometry on Raji cells, non-linear fit of median fluorescence
Experimental: as §1

[10] = target: human CD47, endogenous cell surface form (Raji, CCRF-CEM cells) (human) (UniProt Q08722); assay: cell-based or functional assay
[11] = target: human CD47, endogenous cell surface form (Raji, CCRF-CEM cells) (human) (UniProt Q08722); assay: flow cytometry on CCRF-CEM cells, FITC anti-mouse IgG, MFI-FL1
[12] = target: human CD47, endogenous cell surface form (Raji, CCRF-CEM cells) (human) (UniProt Q08722); assay: apparent KD, flow cytometry on Raji cells, non-linear fit of median fluorescence
[13] = target: human CD47, endogenous cell surface form (Raji, CCRF-CEM cells) (human) (UniProt Q08722); assay: flow cytometry blocking: SIRPa-Fc binding to CCRF-CEM cells with rising antibody
[14] = target: T1, human CD47, endogenous cell surface …; assay: flow cytometry on CCRF-CEM cells, FITC anti-mouse IgG, MFI-FL1
Text: Bound CD47 antibodies were detected using a FITC conjugated anti-mouse IgG secondary antibody (Jackson ImmunoResearch).

[15] = target: T1, human CD47, endogenous cell surface …; assay: apparent KD, flow cytometry on Raji cells, non-linear fit of median fluorescence; remark: listed apart in the source
[16] = target: T1, human CD47, endogenous cell surface …; assay: flow cytometry blocking: SIRPa-Fc binding to CCRF-CEM cells with rising antibody
[17] = target: T2, recombinant His-tagged-CD47-IgV (human, UniProt Q08722 19-134); assay: blocking ELISA: SIRPa-Fc binding to immobilised His-CD47-IgV with rising antibody
T2 construct: not shown: His tag

[18] = target: T1, human CD47, endogenous cell surface …; assay: flow cytometry on Raji cells (CD20-gated), signal normalised to the maximum of the antibody on that cell population
Experimental: (§2) Cynomolgus peripheral blood mononuclear cells (PBMCs) were isolated from cynomolgus whole blood by ficoll-paque gradient centrifugation. […] Cells were analyzed by flow cytometry, first gated on live cells by FSC and SSC, then on cells positive for FL4 (CD20 positive), and lastly the median FL1 (CD47 positive) was measured. The data were normalized by dividing the signal at each concentration by the maximum signal for each antibody on each cell population.

[19] = target: T3, cynomolgus monkey CD47 on cynomolgus B-cells (cynomolgus monkey, UniProt A0A5F8AK49 19-323 (rhesus entry)); assay: flow cytometry on cynomolgus B-cells (CD20-gated PBMC), signal normalised to the maximum of the antibody on that cell population
T3 construct: whole, on cells; also called cyno CD47
Experimental: as §2

[20] = target: T1, human CD47, endogenous cell surface …; assay: flow cytometry on Raji cells, MFI (FL4); remark: listed apart in the source
Experimental: as §1

EC50 (read off the curve) [1]: ~0.3 nM
EC50 (read off the curve) [2]: ~0.2 nM
EC50 (read off the curve) [3]: ~0.1 nM
EC50 (read off the curve) [4]: ~0.2 nM
EC50 (read off the curve) [5]: ~0.1 nM
B1: humanized antibody AB2.05 (human IgG1) (antibody, V domains shown)
VH: QMQLVQSGAEVKKTGSSVKVSCKASGFNIKDYYLHWVRQAPGQALEWMGWIDPDNGDTEYAQKFQDRVTITRDRSMSTAYMELSSLRSEDTAMYYCNAAYGSSSYPMDYWGQGTTVTV
VL: NIQMTQSPSAMSASVGDRVTITCKASQDIHRYLSWFQQKPGKVPKHLIYRANRLVDGVPSRFSGSGSGTEFTLTISSLQPEDFATYYCLQYDEFPYTFGGGTKVEIK

binding result [6]: binds
B2: AB16.05 (antibody, V domains shown)
VH: QMQLVQSGAEVKKTGSSVKVSCKASGYTFKYYYLHWVRQAPGQALEWMGWIDPDNGDTEYAQKFQDRVTITRDRSMSTAYMELSSLRSEDTAMYYCNAAYGSSSYPMDYWGQGTTVTV
VL: NIQMTQSPSAMSASVGDRVTITCKASQDIHRYLSWFQQKPGKVPKHLIYRANRLVDGVPSRFSGSGSGTEFTLTISSLQPEDFATYYCLQYDEFPYTFGGGTKVEIK

Kd [7]: 0.0346 nM
IC50 (read off the curve) [8]: ~0.3 nM
B3: humanized antibody AB6.12-IgG4PE (antibody, V domains shown)
VH: QMQLVQSGAEVKKTGSSVKVSCKASGFNIKDYYLHWVRQAPGQALEWMGWIDPDQGDTEYAQKFQDRVTITRDRSMSTAYMELSSLRSEDTAMYYCNAAYGSSSYPMDYWGQGTTVTV
VL: NIQMTQSPSAMSASVGDRVTITCKASQDIHRYLSWFQQKPGKVPKHLIYRANRLVSGVPSRFSGSGSGTEFTLTISSLQPEDFATYYCLQYDEFPYTFGGGTKVEIK
notes: Igkappa light chain; also called AB6.12-hIgG4PE

Kd [7]: 0.0357 nM
IC50 (read off the curve) [8]: ~0.4 nM
B4: humanized antibody AB6.12-IgG4P (antibody, V domains shown)
VH: QMQLVQSGAEVKKTGSSVKVSCKASGFNIKDYYLHWVRQAPGQALEWMGWIDPDQGDTEYAQKFQDRVTITRDRSMSTAYMELSSLRSEDTAMYYCNAAYGSSSYPMDYWGQGTTVTV
VL: NIQMTQSPSAMSASVGDRVTITCKASQDIHRYLSWFQQKPGKVPKHLIYRANRLVSGVPSRFSGSGSGTEFTLTISSLQPEDFATYYCLQYDEFPYTFGGGTKVEIK
notes: Igkappa light chain; also called AB6.12-hIgG4P

Kd [9]: 0.0399 nM
Kd [7]: 0.0386 nM
IC50 (read off the curve) [8]: ~0.3 nM
B5: humanized antibody AB6.12 (human IgG1) (antibody, V domains shown)
VH: QMQLVQSGAEVKKTGSSVKVSCKASGFNIKDYYLHWVRQAPGQALEWMGWIDPDQGDTEYAQKFQDRVTITRDRSMSTAYMELSSLRSEDTAMYYCNAAYGSSSYPMDYWGQGTTVTV
VL: NIQMTQSPSAMSASVGDRVTITCKASQDIHRYLSWFQQKPGKVPKHLIYRANRLVSGVPSRFSGSGSGTEFTLTISSLQPEDFATYYCLQYDEFPYTFGGGTKVEIK
notes: also called AB6.12-IgG1; AB6.12-hIgG1

phagocytosis of CFSE-labeled CCRF-CEM tumor cells by human monocyte derived macrophages [10]: > 66.7 pM
EC50 (read off the curve) [11]: 3 nM
Kd [12]: 3.79 nM
IC50 (read off the curve) [13]: 9 nM
B6: B6H12 CD47 antibody (antibody, from another filing, V domains shown)
VH: EVKLVESGGDLVKPGGSLKLSCAASGFTFSGYGMSWVRQTPDKRLEWVATITSGGTYTYYPDSVKGRFTISRDNAKNTLYLQIDSLKSEDTAIYFCARSLAGNAMDYWGQGTSVTVSS
VL: DIVMTQSPATLSVTPGDRVSLSCRASQTISDYLHWYQQKSHESPRLLIKFASQSISGIPSRFSGSGSGSDFTLSINSVEPEDVGVYYCQNGHGFPRTFGGGTKLEIK

EC50 (read off the curve) [14]: ~0.09 nM
B7: murine 9E4 antibody (antibody, mouse IgG1, V domains shown)
VH: EVQLRQSGPELVKPGASVKISCKASGYSFTDYYMYWVKQSRVRSLAWIGRINPYTGATGYDQNFKDKASLIVDKSSSTAYMELRSLTSEDSAVYYCARGRNRYDGWFAYWGQGTLVTV
VL: EIQMTQTTSSLSASLGDRVTISCRASQDISNYLNWYQQKPDGTVKLLIYYTSRLHSGVPSRFSGSGSGTDYSLTISNLDQEDIATYFCQQGNALPPTFGGGTNLEIK

EC50 (read off the curve) [14]: ~0.4 nM
Kd [15]: 0.0936 nM
IC50 (read off the curve) [16]: ~0.7 nM
IC50 (read off the curve) [17]: ~5 nM
EC50 (read off the curve) [18]: ~0.4 nM
EC50 (read off the curve) [19]: ~0.4 nM
B8: murine CD47 antibody 2A1 (antibody, mouse IgG1, V domains shown)
VH: EVQLQQSGAELVRSGASVKLSCTASGFNIKDYYLHWVKQRPEQGLEWIGWIDPDNGDTEFAPKFQGKATMTADTSSNTAYLQLSSLTSEDTAVYYCNAAYGSSSYPMDYWGQGTSVTV
VL: DIKMTQSPSSLYASLGERVTITCKASQDIHRYLSWFQQKPGKSPKILIYRANRLVDGVPSRFSGSGSGQDYSLTISSLEYEDMGIYYCLQYDEFPYTFGGGTKLEMK
notes: Hybridoma-derived mouse IgG1; also called 2A1-mIgG1; 2A1mIgG1

EC50 (read off the curve) [1]: ~0.2 nM
EC50 (read off the curve) [3]: ~0.05 nM
EC50 (read off the curve) [20]: ~0.1 nM
EC50 (read off the curve) [6]: ~0.05 nM
EC50 (read off the curve) [5]: ~0.1 nM
Kd [15]: 0.078 nM
Kd [9]: 0.0364 nM
B9: chimeric 2A1 antibody (2A1-xi) (antibody, V domains shown)
VH: EVQLQQSGAELVRSGASVKLSCTASGFNIKDYYLHWVKQRPEQGLEWIGWIDPDNGDTEFAPKFQGKATMTADTSSNTAYLQLSSLTSEDTAVYYCNAAYGSSSYPMDYWGQGTSVTV
VL: DIKMTQSPSSLYASLGERVTITCKASQDIHRYLSWFQQKPGKSPKILIYRANRLVDGVPSRFSGSGSGQDYSLTISSLEYEDMGIYYCLQYDEFPYTFGGGTKLEIK
